This note sets out measurements from publication PMC3605390, “Characterisation of ATP-Dependent Mur Ligases Involved in the Biogenesis of Cell Wall Peptidoglycan in Mycobacterium tuberculosis” (PLoS ONE, 2013).

The test system of series [1] is CC(=O)N[C@H]1[C@@H](OP(=O)(O)OP(=O)(O)OC[C@H]2O[C@@H](n3ccc(=O)[nH]c3=O)[C@H](O)[C@@H]2O)O[C@H](CO)[C@@H](O)[C@@H]1O[C@H](C)C(=O)N[C@@H](C)C(=O)N[C@H](CCC(=O)N[C@@H](CCC[C@@H](N)C(=O)O)C(=O)O)C(=O)O. The experiment in a line: purified protein. Conditions: pH 8.5; 37.0 °C.
For series [2], the system named is C[C@@H](N)C(=O)N[C@H](C)C(=O)O. The experiment in a line: purified protein. Conditions: pH 8.5; 37.0 °C.

As a reminder, the Km is the substrate concentration at which the rate is half of its maximum. By kcat/Km is commonly meant the turnover number divided by the Michaelis constant. MurF (Mycobacterium tuberculosis H37Rv): the Km in series [1] worked out at 64.5 ± 0.2 µM; in series [2], 78.1 ± 0.2 µM. Also, the figures for the kcat/Km in series [1] and in series [2] were 21700 ± 200 M⁻¹ s⁻¹ and 18100 ± 300 M⁻¹ s⁻¹, respectively.
